Measured values: PMC9926122, “Kinetochore-microtubule attachment in human cells is regulated by the interaction of a conserved motif of Ska1 with EB1” (The Journal of Biological Chemistry, 2022)

B1: EB1-GST (natural protein, human, UniProt Q15691 1-268, looked up)
chain: MAVNVYSTSVTSDNLSRHDMLAWINESLQLNLTKIEQLCSGAAYCQFMDMLFPGSIALKKVKFQAKLEHEYIQNFKILQAGFKRMGVDKIIPVDKLVKGKFQDNFEFVQWFKKFFDANYDGKDYDPVAARQGQETAVAPSLVAPALNKPKKPLTSSSAAPQRPISTQRTAAAPKAGPGVVRKNPGVGNGDDEAAELMQQVNVLKLTVEDLEKERDFYFGKLRNIELICQENEGENDPVLQRIVDILYATDEGFVIPDEGGPQEEQEEY
notes: also called GST-tagged EB1; source: E. coli BL21 DE3, purified (Glutathione Sepharose)

What was measured:
Conditions in all cases: both partners purified
6xHis-tagged WT Ska1 [1] = biological target: T1, 6xHis-tagged WT Ska1 (human, UniProt Q96BD8 1-255); assay: pull-down; competition: EB1-GST preincubated with the SXIP peptide aptamer for 2 h, GSH beads added, then incubated with Ska1 WT protein; rising doses of peptide
T1 construct: WT Ska1 from the plasmid pEC-S-CDF-His Ska1; Probably whole Ska1 (1-255); also called 6xHis Ska1 WT; 6xHis-Ska1; source: E. coli BL21 DE3, purified (Ni2+-NTA)

6xHis-tagged WT Ska1 [2] = biological target: T1, 6xHis-tagged WT Ska1; assay: high-speed atomic force microscopy (HS-AFM); proteins (10-30 nM; 10 nM in the frames shown) in BRB80 buffer (80 mM Pipes, 1 mM EGTA, 1 mM MgCl2, pH 6.9) on mica, tapping mode, 150 ms per frame; EB1 alone, Ska1 alone and their mixture
EB1-GST = biological target: B1; assay: pull-down

T1 sequence (Q96BD8 whole entry): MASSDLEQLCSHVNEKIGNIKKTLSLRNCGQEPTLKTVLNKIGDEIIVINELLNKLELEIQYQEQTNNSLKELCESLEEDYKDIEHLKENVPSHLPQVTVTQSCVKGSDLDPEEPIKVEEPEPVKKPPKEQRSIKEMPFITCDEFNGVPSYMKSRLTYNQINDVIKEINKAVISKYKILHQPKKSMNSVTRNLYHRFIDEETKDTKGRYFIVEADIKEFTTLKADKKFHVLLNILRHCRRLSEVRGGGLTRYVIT

B1: binds (6xHis-tagged WT Ska1 [1]).

B2: recombinant EB1 (HS-AFM and microtubule experiments) (natural protein, human, UniProt Q15691 1-268, looked up)
chain: MAVNVYSTSVTSDNLSRHDMLAWINESLQLNLTKIEQLCSGAAYCQFMDMLFPGSIALKKVKFQAKLEHEYIQNFKILQAGFKRMGVDKIIPVDKLVKGKFQDNFEFVQWFKKFFDANYDGKDYDPVAARQGQETAVAPSLVAPALNKPKKPLTSSSAAPQRPISTQRTAAAPKAGPGVVRKNPGVGNGDDEAAELMQQVNVLKLTVEDLEKERDFYFGKLRNIELICQENEGENDPVLQRIVDILYATDEGFVIPDEGGPQEEQEEY
notes: recombinant EB1 with N-terminal calponin homology domains (EB1-N), linker and C-terminal dimer region (EB1-C) seen by HS-AFM; The only EB1 expression construct that the methods describe is GST-tagged EB1 in pGEX 5x3; also called EB1 dimer; source: recombinant
B2: binds (6xHis-tagged WT Ska1 [2]).

B3: SXIP peptide aptamer (peptide)
peptide: ALNGQSRIPVLKRHTR
B3 was tested, and the “percent reduction of EB1-Ska1 association at 1:5 M ratio of EB1:peptide” value (EB1-GST) was roughly 70%.
